Experimental data reported in the supplement of paper PMC7125110.
± gives the standard error. Variants at the floor of the assay were thinned out.

B1: glmS ribozyme (parent)
chain: AUAAAAGCGCCAGAACUACAGAAAUGUAGUUGACGAGGAGGAGGUUUAUCGAAUUUUCGGCGGAUGCCUCCAAA

How the values were obtained:
Conditions in all cases: with glucosamine-6-phosphate
glucosamine-6-phosphate [1] = variants of: B1; assay: self-cleavage kobs at 160 uM GlcN6P; higher = faster cleavage; RNA array
Outline: (§1)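 Glucosamine-6-phosphate in HEPES/KCl/Mg(OAc)2 buffer, at 40 μM to 10 mM, was flowed over barcoded ribozyme variants transcribed in situ by E. coli RNA polymerase on sequenced MiSeq chips. Tracking was through a hybridised Cy3 probe at 37 °C. kobs, kcat and KM came from exponential decay fits and weighted Michaelis–Menten fits of normalised per-tile medians.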

glucosamine-6-phosphate [2] = variants of: B1; assay: self-cleavage kobs at 2500 uM GlcN6P; higher = faster cleavage; RNA array
Outline: as §1

glucosamine-6-phosphate [3] = variants of: B1; assay: self-cleavage kobs at 640 uM GlcN6P; higher = faster cleavage; RNA array
Outline: as §1

glucosamine-6-phosphate [4] = variants of: B1; assay: self-cleavage kobs at 10000 uM GlcN6P; higher = faster cleavage; RNA array
Outline: as §1

Variant	self-cleavage kobs at 160 uM GlcN6P (glucosamine-6-phosphate [1]) [s⁻¹]	self-cleavage kobs at 2500 uM GlcN6P (glucosamine-6-phosphate [2]) [s⁻¹]	self-cleavage kobs at 640 uM GlcN6P (glucosamine-6-phosphate [3]) [s⁻¹]	self-cleavage kobs at 10000 uM GlcN6P (glucosamine-6-phosphate [4]) [s⁻¹]
G7U A12C U54A C58A C70G	< 1e-05	< 1e-05		
A15U A42C	< 1e-05	< 1e-05	< 1e-05	< 1e-05
C10G G13U A15C	< 1e-05		< 1e-05	
C34U G41A	< 1e-05	< 1e-05	< 1e-05	< 1e-05
U46G U57G	< 1e-05		< 1e-05	
G9A U46G	< 1e-05		< 1e-05	< 1e-05
C11U A42U	< 1e-05	< 1e-05	< 1e-05	
G9U A48U	< 1e-05	< 1e-05		< 1e-05
G29U U69C	3.84e-05 ± 1.5e-05	0.000114 ± 3.1e-05	0.000356 ± 9e-05	
C8A C11U C50G A53U G63A	0.00012 ± 2.8e-05	9.63e-05 ± 3.3e-05	0.000594 ± 0.00015	
C11U A15G C68U	4.79e-05 ± 2.4e-05	0.000318 ± 8.7e-05	9.88e-05 ± 2.1e-05	
G9U C16U U57G C68U	< 1e-05		< 1e-05	
A6C G35C G44U	< 1e-05	< 1e-05	< 1e-05	
G7A C8U C16A G43C G44U G63U C68U	< 1e-05	< 1e-05	< 1e-05	< 1e-05
C10U A39U G59A C70U	< 1e-05	< 1e-05		
C10U C34U G38C A39U	< 1e-05			
A14G G29C C61U C71U	< 1e-05		< 1e-05	< 1e-05
G9U A12C G40A G41U G43U G63U	< 1e-05			
G13C C16G G38A	< 1e-05			
G9U U31A C71U	< 1e-05	< 1e-05	< 1e-05	
G7U A36C A48C A53U	< 1e-05	< 1e-05		
G7A G37C A64G	< 1e-05			

Variant	self-cleavage kobs at 160 uM GlcN6P (glucosamine-6-phosphate [1]) [s⁻¹]	self-cleavage kobs at 2500 uM GlcN6P (glucosamine-6-phosphate [2]) [s⁻¹]	self-cleavage kobs at 640 uM GlcN6P (glucosamine-6-phosphate [3]) [s⁻¹]	self-cleavage kobs at 10000 uM GlcN6P (glucosamine-6-phosphate [4]) [s⁻¹]
G7A A12C U57A	< 1e-05	< 1e-05	< 1e-05	
C10U U49G U56A	< 1e-05			
G41U G43U G51U	< 1e-05	< 1e-05		
C11U G43U A48G C71G	< 1e-05	< 1e-05	< 1e-05	
C16A C50G U55C G63C C70G	0.000129 ± 4.7e-05		0.00119 ± 0.00038	
U30C U55A	3.75e-05 ± 1.3e-05		9.3e-05 ± 1.6e-05	
A36G U45C	< 1e-05	< 1e-05	< 1e-05	
C34G G59C	< 1e-05		< 1e-05	< 1e-05
C16G G29C C71G	9.16e-05 ± 1.5e-05			
G7C C10G U45C	< 1e-05			
A48U U49C A64U C70U	< 1e-05		< 1e-05	
G7U G13U	< 1e-05	< 1e-05		< 1e-05
G29A G32C A33U G60C G66U	< 1e-05			< 1e-05
C10U G51U	< 1e-05	< 1e-05	< 1e-05	< 1e-05
G37A U49A C67G	< 1e-05	< 1e-05		
A14G A39G U69A	0.000285 ± 7.7e-05	0.000786 ± 0.00024	0.000936 ± 0.00031	
G7U G51U	< 1e-05	< 1e-05	< 1e-05	< 1e-05
G40U G60A C70A	< 1e-05	< 1e-05		
C50U C61A	9.85e-05 ± 4.8e-05	3.11e-05 ± 1e-05	2.67e-05 ± 1.1e-05	
A33G A39C	< 1e-05	< 1e-05	< 1e-05	< 1e-05
A14G A33C C70A	< 1e-05			
G35A C50A	< 1e-05	< 1e-05	< 1e-05	
